In US20090162366A1:

What was measured:
[1] = biological target: M2HTGEKS peptide conjugated with BSA (influenza A virus, A/chicken/California/1002a/00 (H6N2)); test: peptide-BSA ELISA
[2] = biological target: M2LTKGS peptide conjugated with BSA (influenza A virus, A/Hong Kong/542/97 (H5N1)); test: peptide-BSA ELISA
[3] = biological target: M2KTGEKS peptide conjugated with BSA (influenza A virus, A/Quail/Arkansas/16309-7/94 (H7N3NSA)); test: peptide-BSA ELISA
[4] = biological target: M2TGEK-BSA conjugate (influenza A virus, A/Netherlands/33/03 (H7N7)); test: peptide-BSA ELISA
[5] = biological target: M2TDGEKS peptide conjugated with BSA (influenza A virus, A/chicken/Pennsylvania/13552-1/98 (H7N2NSB)); test: peptide-BSA ELISA
[6] = biological target: M2LTGEKS-BSA conjugate (influenza A virus, A/Hong Kong/1074/99 (H9N2)); test: peptide-BSA ELISA
[7] = biological target: M2PHTGS peptide conjugated with BSA (influenza A virus, A/chicken/HongKong/YU427/03 (H9N2)); test: peptide-BSA ELISA
[8] = biological target: M2GHTGKS peptide conjugated with BSA (influenza A virus, A/chicken/HongKong/SF1/03 (H9N2)); test: peptide-BSA ELISA
[9] = biological target: M2LTGS peptide conjugated with BSA (influenza A virus, A/Hong Kong/156/97 (H5N1)); test: peptide-BSA ELISA
[10] = biological target: M2LTGS (influenza A virus, A/Hong Kong/156/97 (H5N1))
[11] = biological target: M2TDGEKS (influenza A virus, A/chicken/Pennsylvania/13552-1/98 (H7N2NSB))
[12] = biological target: M2GHTGKS (influenza A virus, A/chicken/HongKong/SF1/03 (H9N2))
[13] = biological target: M2HTGEKS (influenza A virus, A/chicken/California/1002a/00 (H6N2))
[14] = biological target: M2TGE (influenza A virus, A/DK/ST/5048/2001 (H3N8))
[15] = biological target: M2PHTGS (influenza A virus, A/chicken/HongKong/YU427/03 (H9N2))
[16] = biological target: M2LTKGS (influenza A virus, A/Hong Kong/542/97 (H5N1))
[17] = biological target: M2LTGEKS (influenza A virus, A/Hong Kong/1074/99 (H9N2))
[18] = biological target: M2TGEKS (influenza A virus, A/Canada/rv504/2004 (H7N3))
[19] = biological target: M2KTGEKS (influenza A virus, A/Quail/Arkansas/16309-7/94 (H7N3NSA))
[20] = biological target: M2DLTGS peptide conjugated with BSA (influenza A virus, A/Hong Kong/485/97 (H5N1)); test: peptide-BSA ELISA (++ EC50<10^-9M; + 10^-9M<EC50<10^-8M)
[21] = biological target: M2TGS-BSA conjugate (influenza A virus, A/chicken/Shanghai/F/98 (H9N2)); test: as above
[22] = biological target: M2TES peptide conjugated with BSA (influenza A virus, A/Viet Nam/1203/2004 (H5N1)); test: as above
[23] = biological target: M2-BSA conjugate (influenza A virus, A/Hong Kong/1/68 (H3N2)); test: as above
[24] = biological target: M2KGENS peptide conjugated with BSA (influenza A virus, A/Turkey/VA/158512/02 (H7N2)); test: as above
[25] = biological target: M2TGE-BSA conjugate (influenza A virus, A/DK/ST/5048/2001 (H3N8)); test: as above
[26] = biological target: M2TGEKS peptide conjugated with BSA (influenza A virus, A/Canada/rv504/2004 (H7N3)); test: as above
[27] = biological target: M2FG peptide conjugated with BSA (influenza A virus, A/X-31 (H3N2)); test: as above
[28] = biological target: M2EG peptide conjugated with BSA (influenza A virus, A/New York/687/1995 (H3N2)); test: as above
[29] = biological target: M2SG peptide conjugated with BSA (influenza A virus, A/swine/Tennessee/25/77 (H1N1)); test: as above
[30] = biological target: M2HTGEKS peptide conjugated with BSA (influenza A virus, A/chicken/California/1002a/00 (H6N2)); test: peptide-BSA ELISA; legend: EC50 > 10^-8M: -
[31] = biological target: M2LTKGS peptide conjugated with BSA (influenza A virus, A/Hong Kong/542/97 (H5N1)); test: peptide-BSA ELISA; legend: EC50 > 10^-8M: -
[32] = biological target: M2KTGEKS peptide conjugated with BSA (influenza A virus, A/Quail/Arkansas/16309-7/94 (H7N3NSA)); test: peptide-BSA ELISA; legend: EC50 > 10^-8M: -
[33] = biological target: M2TGEK-BSA conjugate (influenza A virus, A/Netherlands/33/03 (H7N7)); test: peptide-BSA ELISA; legend: EC50 > 10^-8M: -
[34] = biological target: M2TDGEKS peptide conjugated with BSA (influenza A virus, A/chicken/Pennsylvania/13552-1/98 (H7N2NSB)); test: peptide-BSA ELISA; legend: EC50 > 10^-8M: -
[35] = biological target: M2LTGEKS-BSA conjugate (influenza A virus, A/Hong Kong/1074/99 (H9N2)); test: peptide-BSA ELISA; legend: EC50 > 10^-8M: -
[36] = biological target: M2PHTGS peptide conjugated with BSA (influenza A virus, A/chicken/HongKong/YU427/03 (H9N2)); test: peptide-BSA ELISA; legend: EC50 > 10^-8M: -
[37] = biological target: M2GHTGKS peptide conjugated with BSA (influenza A virus, A/chicken/HongKong/SF1/03 (H9N2)); test: peptide-BSA ELISA; legend: EC50 > 10^-8M: -
[38] = biological target: M2LTGS peptide conjugated with BSA (influenza A virus, A/Hong Kong/156/97 (H5N1)); test: peptide-BSA ELISA; legend: EC50 > 10^-8M: -
[39] = biological target: M2 peptide (influenza A virus, A/Hong Kong/1/68 (H3N2)); test: ELISA on peptide, Ab 10 µg/ml

Substance: mouse anti-M2 antibody 14C2
- EC50 [1]: > 10 nM
- EC50 [2]: > 10 nM
- EC50 [3]: > 10 nM
- EC50 [4]: > 10 nM
- EC50 [5]: > 10 nM
- EC50 [6]: > 10 nM
- EC50 [7]: > 10 nM
- EC50 [8]: > 10 nM
- EC50 [9]: > 10 nM
- % of O.D. on M2 (SEQ ID NO:1) [10]: < 10%
- % of O.D. on M2 (SEQ ID NO:1) [11]: < 10%
- % of O.D. on M2 (SEQ ID NO:1) [12]: < 10%
- % of O.D. on M2 (SEQ ID NO:1) [13]: < 10%
- % of O.D. on M2 (SEQ ID NO:1) [14]: < 10%
- % of O.D. on M2 (SEQ ID NO:1) [15]: < 10%
- % of O.D. on M2 (SEQ ID NO:1) [16]: < 10%
- % of O.D. on M2 (SEQ ID NO:1) [17]: < 10%
- % of O.D. on M2 (SEQ ID NO:1) [18]: < 10%
- % of O.D. on M2 (SEQ ID NO:1) [19]: < 10%
- EC50 [20]: 1 to 10 nM
- EC50 [21]: < 1 nM
- EC50 [22]: < 1 nM
- EC50 [23]: < 1 nM
- EC50 [24]: < 1 nM
- EC50 [25]: < 1 nM
- EC50 [26]: 1 to 10 nM
- EC50 [27]: < 1 nM
- EC50 [28]: < 1 nM
- EC50 [29]: < 1 nM
- EC50 [30]: > 10 nM
- EC50 [31]: > 10 nM
- EC50 [32]: > 10 nM
- EC50 [33]: > 10 nM
- EC50 [34]: > 10 nM
- EC50 [35]: > 10 nM
- EC50 [36]: > 10 nM
- EC50 [37]: > 10 nM
- EC50 [38]: > 10 nM
- ELISA(OD450) [39]: 1.97 OD450
